# Measured values from patent publication US20210324099A1 (Chugai, published 2021).
# Numbering of substitutions follows the chain as printed.
# T1: hFcgRIIb (human, UniProt P31994 43-217)
# T1 construct: extracellular domain; also called human FcγRIIb
# T1 sequence (looked up): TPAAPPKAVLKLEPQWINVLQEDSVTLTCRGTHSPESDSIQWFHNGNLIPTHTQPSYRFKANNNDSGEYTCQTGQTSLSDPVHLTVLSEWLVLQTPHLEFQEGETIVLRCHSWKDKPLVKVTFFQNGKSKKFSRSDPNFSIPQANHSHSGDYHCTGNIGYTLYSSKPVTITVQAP
# T2: hFcgRIIaR (human, UniProt P12318 34-217)
# T2 construct: extracellular domain; also called human FcγRIIa type R (R131)
# T2 sequence (looked up): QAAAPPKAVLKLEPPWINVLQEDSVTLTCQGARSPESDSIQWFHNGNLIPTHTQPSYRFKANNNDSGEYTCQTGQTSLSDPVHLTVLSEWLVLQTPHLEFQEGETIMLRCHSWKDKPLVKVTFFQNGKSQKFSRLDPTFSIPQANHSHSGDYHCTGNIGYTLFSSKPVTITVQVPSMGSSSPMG
# T3: hFcgRIIaH (human, UniProt P12318 34-217)
# T3 construct: extracellular domain; also called human FcγRIIa type H (H131)
# T3 sequence (looked up): T2 sequence (looked up) with R134H
# B1: A375-G1T3/B167-Lamlib (antibody, human IgG1, lambda)
# heavy: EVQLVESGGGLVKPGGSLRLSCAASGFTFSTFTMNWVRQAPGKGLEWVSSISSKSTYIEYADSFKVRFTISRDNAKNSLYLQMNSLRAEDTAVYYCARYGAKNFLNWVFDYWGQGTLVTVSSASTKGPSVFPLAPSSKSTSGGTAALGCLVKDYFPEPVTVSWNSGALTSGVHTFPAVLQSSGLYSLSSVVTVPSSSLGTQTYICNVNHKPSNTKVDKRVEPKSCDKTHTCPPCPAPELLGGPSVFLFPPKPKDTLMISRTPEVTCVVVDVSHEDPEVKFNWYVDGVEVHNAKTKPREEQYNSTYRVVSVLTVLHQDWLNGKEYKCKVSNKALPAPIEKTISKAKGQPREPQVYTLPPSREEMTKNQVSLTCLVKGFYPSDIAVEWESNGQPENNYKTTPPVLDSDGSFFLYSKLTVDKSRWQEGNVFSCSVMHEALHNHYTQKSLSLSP
# light: QSALTQPPSASGSPGQTVTISCTGTRYDVGYYEYVSWYQQHPGKAPKLMIYETSKRLSGVPDRFSGSKSGNTASLTVSGLQAEDEADYYCSSYRYEHQVSFGGGTKLTVLGQPKAAPSVTLFPPSSEELQANKATLVCLISDFYPGAVTVAWKADSSPVKAGVETTTPSKQSNNKYAASSYLSLTPEQWKSHRSYSCQVTHEGSTVEKTVAPTECS
# notes: copies: 2 + 2
# B2: A375-TT11/B167-Lamlib (antibody, human IgG1, lambda)
# heavy: EVQLVESGGGLVKPGGSLRLSCAASGFTFSTFTMNWVRQAPGKGLEWVSSISSKSTYIEYADSFKVRFTISRDNAKNSLYLQMNSLRAEDTAVYYCARYGAKNFLNWVFDYWGQGTLVTVSSASTKGPSVFPLAPSSKSTSGGTAALGCLVKDYFPEPVTVSWNSGALTSGVHTFPAVLQSSGLYSLSSVVTVPSSSLGTQTYICNVNHKPSNTKVDKKVEPKSCDKTHTCPPCPAPEYLGGDSVFLFPPKPKDVLMISRTPEVTCVVVDVSHEDPEVKFNWYVDGVEVHNAKTKPREEQYNSTYRVVSVLPVLHQDWLNGKEYKCKVSNKALPKPIEKTISKAKGQPREPQVYTLPPSREEMTKNQVSLTCLVKGFYPSDIAVEWESNGQPENNYKTTPPVLDSDGSFFLYSKLTVDKSRWQQGNVFSCSVMHEALHNHYTQKSLSLSP
# light: B1 light
# notes: copies: 2 + 2
# B3: A375-MY518a/B167-Lamlib (antibody, human IgG1, lambda)
# heavy: B2 heavy with K219R, Y239L, L240W, G241N, D243P, V255T, H273D, Q300L, P312T, K331T
# light: B1 light
# notes: copies: 2 + 2
# B4: A375-MY201aPh/B167-Lamlib (antibody, human IgG1, lambda)
# heavy: B2 heavy with K219R, Y239L, L240W, G241N, D243P, V255T, H273D, P312T
# light: B1 light
# notes: copies: 2 + 2
# B5: A375-MY201a/B167-Lamlib (antibody, human IgG1, lambda)
# heavy: B2 heavy with K219R, Y239L, G241N, D243P, V255T, H273D, P312T
# light: B1 light
# notes: copies: 2 + 2
# B6: A375-P587/B167-Lamlib (antibody, human IgG1, lambda)
# heavy: EVQLVESGGGLVKPGGSLRLSCAASGFTFSTFTMNWVRQAPGKGLEWVSSISSKSTYIEYADSFKVRFTISRDNAKNSLYLQMNSLRAEDTAVYYCARYGAKNFLNWVFDYWGQGTLVTVSSASTKGPSVFPLAPSSKSTSGGTAALGCLVKDYFPEPVTVSWNSGALTSGVHTFPAVLQSSGLYSLSSVVTVPSSSLGTQTYICNVNHKPSNTKVDKKVEPKSCDKTHTCPPCPAPDLLGGDSVFLFPPKPKDTLMISRTPEVTCVVIDVAEEDGEVKFNWYVDGVEVHNAKTKPREEQYNSTYRVVSVLTVLHQDWLNGKEYKCKVSNKALPAPIEKTISKAKGQPREPQVYTLPPSRDELTKNQVSLTCLVKGFYPSDIAVEWESNGQPENNYKTTPPVLDSDGSFFLYSKLTVDKSRWQQGNVFSCSVMHEALHNHYTQKSLSLSP
# light: B1 light
# notes: copies: 2 + 2
# B7: A375-MY518/B167-Lamlib (antibody, human IgG1, lambda)
# heavy: B2 heavy with Y239L, L240W, G241N, D243P, V255T, H273D, Q300L, P312T, K331T
# light: B1 light
# notes: copies: 2 + 2
# B8: A375-P253/B167-Lamlib (antibody, human IgG1, lambda)
# heavy: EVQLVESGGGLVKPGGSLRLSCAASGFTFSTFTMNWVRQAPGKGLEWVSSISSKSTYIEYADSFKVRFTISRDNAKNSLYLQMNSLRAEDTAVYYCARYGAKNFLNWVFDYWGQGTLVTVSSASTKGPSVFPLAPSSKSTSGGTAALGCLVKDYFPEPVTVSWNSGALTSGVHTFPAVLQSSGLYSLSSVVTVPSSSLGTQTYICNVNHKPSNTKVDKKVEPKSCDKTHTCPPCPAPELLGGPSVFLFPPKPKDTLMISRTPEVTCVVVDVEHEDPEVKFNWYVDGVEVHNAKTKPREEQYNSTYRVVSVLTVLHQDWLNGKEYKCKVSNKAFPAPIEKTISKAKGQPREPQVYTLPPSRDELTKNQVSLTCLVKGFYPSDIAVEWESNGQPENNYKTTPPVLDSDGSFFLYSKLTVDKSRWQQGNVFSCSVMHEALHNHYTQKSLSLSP
# light: B1 light
# notes: copies: 2 + 2
# Target: human FcRn (human, UniProt P55899 24-290; P61769 21-119, limits assumed)
# Assay: SPR 25C pH 6.0, steady state;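 further: antibody captured on chip via anti-human Fab-lambda ligand, human FcRn injected as analyte in 50 mM phosphate buffer with 150 mM NaCl and P20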
# Description: Biacore T200 (GE Healthcare) was used to assess the binding activity to human FcRn. Measurement was performed at 25° C. using 50 mM phosphate, 150 mM NaCl, 0.05 w/v %-P20, pH 6.0 as buffer. […] About 400 RU of antibody was captured using a sensor chip immobilized with CaptureSelect™ Human Fab-lambda Kinetics Biotin Conjugate (Thermo Fisher Scientific) as a molecule for ligand capturing, followed by the binding of human FcRn diluted in measuring buffer. The activity of the respective antibodies to bind FcRn was assessed by calculating KD (mol/L) by the steady-state model using Biacore T200 Evaluation Software 2.0.
# 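Wherever binding per 1RU of antibody is given: biacore SPR with antibody captured on an anti-human Fab lambda chip, human FcγR injected at 1000 nM (FcγRIa at 8 nM) in pH 7.4 phosphate buffer.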
row,Kd,Binder
1,1.27 µM,B1
2,1.56 µM,B2
3,1.32 µM,B3
4,1.18 µM,B4
5,1.19 µM,B5
6,1.7 µM,B6
7,1.27 µM,B7
8,1.42 µM,B8

# Target: T1, hFcgRIIb
# Assay: SPR 25C; relative to A375-G1T3/B167-Lamlib;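 further: SPR with antibody captured on an anti-human Fab-lambda chip, human FcγR analyte at 8 nM for FcγRIa or 1000 nM for the others, pH 7.4, FcγR RU per captured antibody unit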
# Description: (§1) Biacore T200 (GE Healthcare) was used to evaluate the binding activity to the respective human Fcγ receptor (hereafter referred to as FcγR). Measurement was performed at 25° C. using 50 mM phosphate, 150 mM NaCl, 0.05 w/v %-P20, pH 7.4 as buffer. About 1000 RU of antibody was captured using a sensor chip immobilized with CaptureSelect™ Human Fab-lambda Kinetics Biotin Conjugate (Thermo Fisher Scientific) as a molecule for ligand capturing. Human FcγR was diluted to 8 nM for FcγRIa and 1000 nM for other FcγR in the measurement buffer, and it was interacted to the captured antibody. The binding activity of each antibody to FcγR was assessed by calculating the binding amount of FcγR (RU) per unit amount of antibody using Biacore T200 Evaluation Software 2.0.
row,relative binding amount,Binder
1,1,B1
2,4.35,B2
3,4.46,B3
4,2.85,B4
5,3.66,B5
6,13,B6
7,4.4,B7
8,14.3,B8

# Target: T2, hFcgRIIaR
# Assay: SPR 25C; relative to A375-G1T3/B167-Lamlib;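 further: SPR with antibody captured on an anti-human Fab-lambda chip, human FcγR analyte at 8 nM for FcγRIa or 1000 nM for the others, pH 7.4, FcγR RU per captured antibody unit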
# Description: as §1
row,relative binding amount,Binder
1,1,B1
2,1.01,B3
3,0.72,B4
4,0.73,B5
5,0.8,B6
6,0.99,B7
7,3.62,B8

# Target: T4, hFcgRIa (human, UniProt P12314 16-292)
# T4 construct: extracellular domain; also called human FcγRIa; FcγRI
# T4 sequence (P12314 16-292): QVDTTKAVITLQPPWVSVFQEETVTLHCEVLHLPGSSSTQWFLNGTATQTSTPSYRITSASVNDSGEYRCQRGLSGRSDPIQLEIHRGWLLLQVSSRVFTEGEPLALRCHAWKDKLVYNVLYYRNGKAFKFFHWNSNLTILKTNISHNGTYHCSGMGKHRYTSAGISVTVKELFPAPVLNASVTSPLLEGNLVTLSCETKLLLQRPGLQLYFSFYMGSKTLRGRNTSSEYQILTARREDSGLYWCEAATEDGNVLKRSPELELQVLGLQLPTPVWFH
# Assay: SPR 25C; relative to A375-G1T3/B167-Lamlib;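 further: SPR with antibody captured on an anti-human Fab-lambda chip, human FcγR analyte at 8 nM for FcγRIa or 1000 nM for the others, pH 7.4, FcγR RU per captured antibody unit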
# Description: as §1
row,relative binding amount,Binder
1,1,B1
2,0.04,B3
3,0.05,B4
4,0.49,B5
5,1.18,B6
6,0.02,B7
7,1.15,B8

# Target: T5, hFcgRIIIaF (human, UniProt P08637 17-208)
# T5 construct: extracellular domain; also called human FcγRIIIa allotype F158
# T5 sequence (P08637 17-208): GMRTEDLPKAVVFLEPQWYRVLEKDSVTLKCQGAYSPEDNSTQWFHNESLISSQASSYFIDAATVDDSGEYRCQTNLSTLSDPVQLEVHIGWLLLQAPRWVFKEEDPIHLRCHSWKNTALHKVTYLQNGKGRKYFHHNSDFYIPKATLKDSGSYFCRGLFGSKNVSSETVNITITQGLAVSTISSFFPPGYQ
# Assay: SPR 25C; relative to A375-G1T3/B167-Lamlib;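 further: SPR with antibody captured on an anti-human Fab-lambda chip, human FcγR analyte at 8 nM for FcγRIa or 1000 nM for the others, pH 7.4, FcγR RU per captured antibody unit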
# Description: as §1
row,relative binding amount,Binder
1,1,B1
2,-0.04,B2
3,0.03,B3
4,0.03,B4
5,0.04,B5
6,0,B6
7,0.04,B7
8,0.26,B8

# Target: T3, hFcgRIIaH
# Assay: SPR 25C; relative to A375-G1T3/B167-Lamlib
# Description: as §1
row,relative binding amount,Binder
1,1,B1
2,0.03,B2
3,0.84,B3
4,0.58,B4
5,0.94,B5
6,0.05,B6
7,0.82,B7
8,0.88,B8

# Target: T6, hFcgRIIIaV (human, UniProt P08637 17-208)
# T6 construct: extracellular domain; also called human FcγRIIIa allotype V158
# T6 sequence (P08637 17-208 F176V): as the sequence (P08637 17-208) above, with F160V counted along it
# Assay: SPR 25C; relative to A375-G1T3/B167-Lamlib
# Description: as §1
row,relative binding amount,Binder
1,1,B1
2,-0.01,B2
3,0.01,B3
4,0.02,B4
5,0.03,B5
6,0,B6
7,0.02,B7
8,0.03,B8

# Target: T1, hFcgRIIb
# Assay: SPR 25C
# Description: as §1
row,binding per 1RU of antibody,Binder
1,0.011 RU,B1
2,0.0477 RU,B2
3,0.0489 RU,B3
4,0.0313 RU,B4
5,0.0401 RU,B5
6,0.143 RU,B6
7,0.0482 RU,B7
8,0.156 RU,B8

# Target: T2, hFcgRIIaR
# Assay: SPR 25C
# Description: as §1
row,binding per 1RU of antibody,Binder
1,0.0463 RU,B1
2,0.047 RU,B3
3,0.0335 RU,B4
4,0.0338 RU,B5
5,0.0371 RU,B6
6,0.046 RU,B7
7,0.168 RU,B8

# Target: T4, hFcgRIa
# Assay: SPR 25C
# Description: as §1
row,binding per 1RU of antibody,Binder
1,0.0813 RU,B1
2,0.0033 RU,B3
3,0.004 RU,B4
4,0.0396 RU,B5
5,0.0962 RU,B6
6,0.002 RU,B7
7,0.0937 RU,B8

# Target: T5, hFcgRIIIaF
# Assay: SPR 25C
# Description: as §1
row,binding per 1RU of antibody,Binder
1,0.0213 RU,B1
2,-0.0009 RU,B2
3,0.0006 RU,B3
4,0.0007 RU,B4
5,0.0007 RU,B5
6,0.0001 RU,B6
7,0.0009 RU,B7
8,0.0056 RU,B8

# Target: T3, hFcgRIIaH
# Assay: SPR 25C
# Description: as §1
row,binding per 1RU of antibody,Binder
1,0.0567 RU,B1
2,0.002 RU,B2
3,0.0479 RU,B3
4,0.0328 RU,B4
5,0.0534 RU,B5
6,0.0029 RU,B6
7,0.0466 RU,B7
8,0.0497 RU,B8

# Target: T6, hFcgRIIIaV
# Assay: SPR 25C
# Description: as §1
row,binding per 1RU of antibody,Binder
1,0.07 RU,B1
2,-0.001 RU,B2
3,0.0009 RU,B3
4,0.0011 RU,B4
5,0.0024 RU,B5
6,0.0001 RU,B6
7,0.0015 RU,B7
8,0.0019 RU,B8
